# Source: patent US7572594B2, “Screening assays for agonists or antagonists or receptor activator of NF-κB” (Immunex Corporation, priority 2000, dated 2009)
# B1: leucine zipper form of murine RANK-L: soluble leucine zipper fusion of murine RANK-L (protein)
# chain: YFRAQMDPNRISEDSTHCFYRILRLHENADLQDSTLESEDTLPDSCRRMKQAFQGAVQKELQHIVGPQRFSGAPAMMEGSWLDVAQRGKPEAQPFAHLTINAASIPSGSHKVTLSSWYHDRGWAKISNMTLSNGKLRVNQDGFYYLYANICFRHHETSGSVPTDYLQLMVYVVKTSIKIPSSHNLMKGGSTKNWSGNSEFHFYSINVGGFFKLRAGEEISIQVSNPSLLDPDQDATYFGAFKVQDID
# modifications: left off: a dimerising Fc or GST
# Tests used:
# [1] = tested on: mouse MMP-9 mRNA; experiment: Quantitative RT-PCR of MMP-9 mRNA in RAW 264.7 cells; assay type: cell-based; conditions: RANKL/LZ 200 ng/ml or TNFα 20 ng/ml, various times
# Description: MMP-9 mRNA is elevated greater than 350-fold by RANK-L, but is not increased by TNFα. This specificity is helpful in screening for inhibitors of RANK signal transduction.
# [2] = tested on: MMP-9 (SEQ ID NO:11)/luciferase promoter; experiment: MMP-9/luciferase reporter in RAW 264.7 cells; assay type: cell-based, murine; conditions: 1 μg/ml for 18 hours
# Experimental: Additionally, RAW 264.7 cells (6×10^6 cells) were transfected with 15 μg of MMP-9 (SEQ ID NO:11)/luciferase plasmid DNA using DEAE/dextran. Two hours after transfection, cells were divided into two equal amounts and further incubated for 24 hours. Addition of 1 μg/ml of a leucine zipper form of murine RANK-L for 18 hours was sufficient to induce the MMP-9 (SEQ ID NO:11)/luciferase promoter 10-15 fold.
# [3] = tested on: mouse TRAP mRNA; experiment: Quantitative RT-PCR of TRAP mRNA in RAW 264.7 cells; assay type: cell-based; conditions: RANKL/LZ 200 ng/ml or TNFα 20 ng/ml, various times
molecule,measurement,setting,value
B1,MMP-9 mRNA elevation,[1],greater than 350 fold
same,induction of MMP-9/luciferase promoter,[2],10-15 fold
same,TRAP mRNA elevation,[3],greater than 250 fold
